# Laboratory results as given in PMC2948018, “Identification of Thioaptamer Ligand against E-Selectin: Potential Application for Inflamed Vasculature Targeting”.
# T1: L-selectin (UniProt P14151 39-332)
# T1 sequence: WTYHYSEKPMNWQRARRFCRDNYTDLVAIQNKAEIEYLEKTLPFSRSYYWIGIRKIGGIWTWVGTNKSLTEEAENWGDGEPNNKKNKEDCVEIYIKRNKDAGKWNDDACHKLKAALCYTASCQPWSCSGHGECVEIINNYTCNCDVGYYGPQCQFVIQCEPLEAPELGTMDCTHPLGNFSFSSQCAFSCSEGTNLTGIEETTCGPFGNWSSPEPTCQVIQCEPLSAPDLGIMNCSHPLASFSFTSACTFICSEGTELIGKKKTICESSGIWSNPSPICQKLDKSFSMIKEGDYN
# T2: E-selectin extracellular domain (human, UniProt P16581 22-556)
# T2 sequence: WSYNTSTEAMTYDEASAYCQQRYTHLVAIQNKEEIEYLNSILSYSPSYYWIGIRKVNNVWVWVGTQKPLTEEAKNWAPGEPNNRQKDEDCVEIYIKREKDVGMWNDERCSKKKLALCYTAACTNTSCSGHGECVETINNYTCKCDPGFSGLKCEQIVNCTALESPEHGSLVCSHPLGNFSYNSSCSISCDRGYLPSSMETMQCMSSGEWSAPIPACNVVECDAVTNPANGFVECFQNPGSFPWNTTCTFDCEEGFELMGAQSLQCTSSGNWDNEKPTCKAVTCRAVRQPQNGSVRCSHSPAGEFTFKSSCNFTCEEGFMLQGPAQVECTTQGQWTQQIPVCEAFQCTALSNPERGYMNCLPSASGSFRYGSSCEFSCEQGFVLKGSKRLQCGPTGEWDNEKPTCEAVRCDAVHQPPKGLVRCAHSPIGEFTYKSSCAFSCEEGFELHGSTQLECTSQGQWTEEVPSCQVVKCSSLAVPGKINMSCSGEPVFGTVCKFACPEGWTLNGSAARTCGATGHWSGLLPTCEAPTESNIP
# What was measured:
# Test in all cases: EMSA; 5 mM Mg2+, Ca2+; EMSA: PBS with Ca2+ and Mg2+, 5 mM MgCl2, 1% NP40, room temperature 45 min, 4.6 pmol ESTA-1 with 0-19 pmol selectin in 10.5 ul, 6% gel run at 4 C; cell binding: 20 min at 37 C; pH not stated
# P-selectin = P-selectin (UniProt P16109 42-771); settings: protein: recombinant; label: none in EMSA (SYBR Gold stain); two hairpin loops (MFOLD)
# P-selectin, sequence (P16109 42-771): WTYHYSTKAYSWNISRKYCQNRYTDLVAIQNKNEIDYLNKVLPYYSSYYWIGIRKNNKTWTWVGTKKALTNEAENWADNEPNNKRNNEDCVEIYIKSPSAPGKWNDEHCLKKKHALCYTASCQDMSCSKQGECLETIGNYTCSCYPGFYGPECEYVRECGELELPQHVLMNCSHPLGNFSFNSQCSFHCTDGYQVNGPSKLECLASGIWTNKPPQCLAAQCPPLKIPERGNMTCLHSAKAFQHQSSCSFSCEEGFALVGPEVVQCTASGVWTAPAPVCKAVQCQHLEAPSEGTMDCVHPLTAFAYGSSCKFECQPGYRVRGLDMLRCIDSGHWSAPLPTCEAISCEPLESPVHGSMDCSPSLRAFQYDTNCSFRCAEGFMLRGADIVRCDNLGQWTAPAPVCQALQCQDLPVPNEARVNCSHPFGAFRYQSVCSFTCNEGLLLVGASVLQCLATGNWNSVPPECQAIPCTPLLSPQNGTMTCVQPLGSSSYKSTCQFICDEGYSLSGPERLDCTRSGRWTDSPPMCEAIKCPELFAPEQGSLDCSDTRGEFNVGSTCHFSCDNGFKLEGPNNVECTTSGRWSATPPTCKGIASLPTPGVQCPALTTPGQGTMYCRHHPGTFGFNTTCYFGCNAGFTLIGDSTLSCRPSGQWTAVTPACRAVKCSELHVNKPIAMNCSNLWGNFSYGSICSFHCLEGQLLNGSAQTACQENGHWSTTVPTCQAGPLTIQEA
# L-selectin = target: T1, L-selectin; settings: protein: recombinant; label: none in EMSA (SYBR Gold stain); two hairpin loops (MFOLD)
# [1] = target: T2, E-selectin extracellular domain; settings: protein: commercial; label: none in EMSA (SYBR Gold stain); two hairpin loops (MFOLD)
binder,measurement,setting,value
"ESTA-1 (TA-1) (XNA, monothiophosphate (Rp) at all dA except 5' primer region) DNA: CGCTCGGATCGATAAGCTTCGATCCCACTCTCCCGTTCACTTCTCCTCACGTCACGGATCCTCTAGAGCACTG",Kd,P-selectin,~13 µM
same,binding result,L-selectin,no binding
same,Kd,[1],0.047 µM
